One data set addresses T1, PTHR1 (PTH Receptor 1) (Homo sapiens, UniProt Q03431).
T1 construct: host or cells: HEK 293 cells
T1 sequence (Q03431 27-593): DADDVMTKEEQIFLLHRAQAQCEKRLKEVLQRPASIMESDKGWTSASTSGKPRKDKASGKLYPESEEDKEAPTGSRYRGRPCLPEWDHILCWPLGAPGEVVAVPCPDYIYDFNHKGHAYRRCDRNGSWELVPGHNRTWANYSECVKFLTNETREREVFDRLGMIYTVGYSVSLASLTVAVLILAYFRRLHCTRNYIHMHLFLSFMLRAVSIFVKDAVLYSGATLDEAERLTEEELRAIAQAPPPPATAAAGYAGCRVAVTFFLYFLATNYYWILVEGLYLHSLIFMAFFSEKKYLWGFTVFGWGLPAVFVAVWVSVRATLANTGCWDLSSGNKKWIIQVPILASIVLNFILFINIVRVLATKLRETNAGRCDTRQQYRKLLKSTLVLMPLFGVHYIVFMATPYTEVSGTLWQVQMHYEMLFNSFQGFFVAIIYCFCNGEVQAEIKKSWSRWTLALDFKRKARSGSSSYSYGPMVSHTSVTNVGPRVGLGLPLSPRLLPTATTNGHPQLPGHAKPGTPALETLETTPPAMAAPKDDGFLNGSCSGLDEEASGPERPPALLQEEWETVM
Briefly: PTH receptor internalization in HEK 293 cells transfected with PTHR-emGFP. The format is cell-based. As to conditions: 100 nM. How it is done: The kinetics of PTHR1 (PTH Receptor 1) internalization for compounds of the invention are determined following ligand binding to membrane receptors. HEK 293 cells are transfected with PTHR-emGFP plasmid (Invitrogen).
The cells are seeded at 7,000 cells/well, 100 μL/well into clear bottomed, black, 96 well plate coated with poly-D lysine. 24 hours after being seeded into the 96 well plate, the cells are dosed with 10 μL of a compound to be tested, at final concentrations of 100 nM at staggered time points from 0 minutes to 3 hours. Media is aspirated at end point of dosing. Cells are fixed with 100 μL Prefer (Anatech, Battle Creek, Mich.) for 30 minutes. Prefer is aspirated from the cells, and cells are washed three times with 100 μL 1×PBS. Cells are stained with 100 μL diluted Hoechst nuclear stain (diluted in 1×PBS) for 30 minutes. Hoechst stain is aspirated and replaced with 1×PBS. Plates are stored in the dark at 4° C. until scanning. Cells are scanned within 48 hours using a Cellomics® ArrayScan. Representative data from various timepoints, set forth as percent of vehicle only control (baseline=100%), are presented in Table 8.

The subject of data set [1] is aged osteopenic ovariectomized rats. In words: Aged osteopenic ovariectomized rats: vertebral BMD/BMC, bone biomechanical strength, serum calcium. The format is in vivo, rat. The following applies: for Hypercalcemic Dose/Femoral Neck Strength Dose / Hypercalcemic Dose/Midshaft Strength Dose / Hypercalcemic Dose/Vertebral BMC Dose / Hypercalcemic Dose/Vertebral BMD Dose / Hypercalcemic Dose/Vertebral Strength Dose: derived from Table 3; for Vertebral BMC Dose: dose at which Sham level of vertebral BMC is achieved; for Vertebral BMD Dose: dose at which Sham level of vertebral BMD is achieved, s.c. every 6 or 7 days for two months; for Fem Neck Strength Dose: dose at which femoral neck strength comparable to sham vehicle control and positive control is achieved; for Midshaft Strength Dose: dose at which midshaft strength comparable to sham vehicle control and positive control is achieved; for Vertebral Strength Dose: dose at which vertebral strength comparable to sham and positive control is achieved; for Hypercalcemia Dose: sera 24 hours after administration, > means highest dose tested, not reached. The procedure: Hypercalcemia is defined herein as the upper 97.5 percentile serum calcium value of normal ovariectomized vehicle controls for the animal type used, using clinical chemistry data and sera collected from cardiac puncture (International Federation of Clinical Chemistry, H E Solberg in Tietz Fundamentals of Clinical Chemistry, 5th edition, Burtis C A and Ashwood E R, editors, 2001, pp 251-261). The value reflecting the 97.5 percentile is 11.2 mg of calcium per dL of serum from ovx vehicle control. The “Hypercalcemic Dose”, i.e., the dose at which hypercalcemia is observed 24 hours after injection of the test compound using clinical chemistry data and sera collected from cardiac puncture, is determined by interpolation, using regression analysis to fit the calcemic dose response observed 24 hours after administering the compound to ovariectomized rats.
Female Sprague-Dawley rats about 6 months of age are ovariectomized, except for sham controls, and maintained on a 12 hour light/dark cycle at 22° C. with ad lib access to food (TD 89222 with 0.5% Ca and 0.4% P, Teklad, Madison, Wis.) and water. Ovariectomized (Ovx) rats are allowed to lose bone for one month before treatment with compounds of the invention for two additional months. The compound to be tested is subcutaneously administered at various doses (as indicated in Table 3 below) in a vehicle of 20 mM NaH2PO4 in 0.9% NaCl, 3 mg/ml mannitol, pH 5, every 6 or 7 days for two months. Sham and Ovx controls are treated with the vehicle only (“sham vehicle control” and “ovx vehicle control”). Sera are then collected by cardiac puncture under isoflurane anesthesia at necropsy, and analyzed using a clinical chemistry analyzer. Lumbar vertebra L4-6 and left femora are removed, cleaned of soft-tissue and stored in 50% ethanol/saline at 4° C. At room temperature, L-5 in 50% EtOH/saline are wrapped in Parafilm and centered with respect to the QCT gantry (Research M, Stratec). A coronal scout scan of the L-5 vertebra is generated first in 2D before 3D analysis. QCT parameters are measured including BMD (mg/cc), BMC (mg), and cross-sectional area (mm^2). Lumbar vertebra L-5, femoral midshaft, and proximal femur are then prepared for biomechanical testing. Strength (N) is evaluated by loading the specimens to failure as described previously (Sato, et al., Endocrinology, […]:4330-4337, 1997).
Pegylated compounds of the invention are evaluated in this assay relative to a positive control of 3-5 μg/kg/d PTH(1-38). PTH(1-34) and PTH(1-38) are found to be indistinguishable in terms of skeletal efficacy or calcemic effects in osteopenic ovariectomized rats. It has been previously shown that rats administered 5 μg/kg/d (1 nmol/kg/d) PTH(1-34) have a systemic exposure that is about 3 times that of PTH(1-34) (i.e., FORTEO™) in humans (Tashjian and Chabner, J. Bone Miner Res, 17:1151-1161, 2002; Tashjian and Gagel, J. Bone Miner Res, 21:354-365, 2006). […] This is confirmed for PTH(1-38) in this model with a dosing of 3-5 μg/kg/d.

Data set [2] has the same test system. In words: Direct comparison of 2 kD and 5 kD pegylated SEQ ID NO: 1 in aged osteopenic ovariectomized rats. The following applies: for Serum Calcium: 24 hours after dosing. The format is in vivo, rat. An excerpt:
A compound of the invention with SEQ ID NO: 1, wherein the mPEG to which it is conjugated is a 2 kD mPEG, is directly compared to a compound of the invention with SEQ ID NO: 1, wherein the mPEG to which it is conjugated is a 5 kD mPEG. Aged osteopenic ovariectomized rats are permitted to lose bone for one month before dosing (nmol/kg as in Table 5 and 6) every 6 days with vehicle alone, or the 2 kD pegylated SEQ ID NO: 1 compound or the 5 kD pegylated SEQ ID NO: 1 compound for 8 weeks.

The mark [3] stands for this setting: 11 nmol/kg every 6 days for 8 weeks.
Where [4] appears, read: 32 nmol/kg every 6 days for 8 weeks.
Setting [5] is: 110 nmol/kg every 6 days for 8 weeks.

No end group written: not given here. Bounds are passed on as bounds.

The source of these data is patent US7820179B2, “Pegylated PTH as PTH receptor modulators and uses thereof” (Eli Lilly and Company, priority 2006, dated 2010).

Regarding “PTH(1-38): positive control, parathyroid hormone fragment 1-38 (SVSEIQLMHNLGKHLNSMERVEWLRKKLQDVHNFVALG) [reference compound]”, the “PTHR1 internalization, percent of vehicle only control (baseline=100%)” value with PTHR1 (PTH Receptor 1) (20 min) was determined as 166%; in the data set with PTHR1 (PTH Receptor 1) (40 min), 177%; with PTHR1 (PTH Receptor 1) (60 min), 224%; with PTHR1 (PTH Receptor 1) (180 min), 175%. Besides, the “Restoration of vertebral BMD from Ovx to sham vehicle control levels” value in data set [1] (3-5 μg/kg/d, positive control) was “confirmed”.
With “SEQ ID NO: 1 but unpegylated and Lysine at amino acid 26: unpegylated molecule with the backbone of SEQ ID NO: 1 with a lysine residue at position 26 (SVSEIQLMHNLGRHLASMERVEWLRKLLQDVHNF-NH2)”, the “PTHR1 internalization, percent of vehicle only control (baseline=100%)” value with PTHR1 (PTH Receptor 1) (20 min) came to 106%; in the data set with PTHR1 (PTH Receptor 1) (40 min), 126%; with PTHR1 (PTH Receptor 1) (60 min) it was 113%; with PTHR1 (PTH Receptor 1) (180 min), 142%.
As for “SEQ ID NO: 1 with 2 kD mPEG (SVSEIQLMHNLGRHLASMERVEWLRKLLQDVHNF-NH2; not fully specified (residue 26))”, in data set [2] (setting [3]), the “Vertebral BMD” value amounted to 590 mg/cc and the “Serum Calcium” value is 10.45 mg/dL. In addition, in data set [2] (setting [4]), the “Vertebral BMD” value worked out at 603 mg/cc and the “Serum Calcium” value is recorded as 10.38 mg/dL. In data set [2] (setting [5]), the “Vertebral BMD” value turned out to be 623 mg/cc and the “Serum Calcium” value is 10.25 mg/dL. In addition, the “Hypercalcemia at the highest dose tested” value in data set [1] (aged Ovx rats) was “absence of hypercalcemia”. In data set [1], the “Hypercalcemic Dose/Femoral Neck Strength Dose” value was more than 10.0, the “Hypercalcemic Dose/Midshaft Strength Dose” value is more than 3.43, the “Hypercalcemic Dose/Vertebral BMC Dose” value was more than 3.43 and the “Hypercalcemic Dose/Vertebral BMD Dose” value was more than 1.0. Further, in data set [1], the “Hypercalcemic Dose/Vertebral Strength Dose” value is reported as more than 10.0, the “Vertebral BMC Dose” value came to 32 nmol/kg, the “Vertebral BMD Dose” value is 110 nmol/kg and the “Fem Neck Strength Dose” value is 11 nmol/kg. In addition, in data set [1], the “Midshaft Strength Dose” value was found to be 32 nmol/kg, the “Vertebral Strength Dose” value is on record as 11 nmol/kg and the “Hypercalcemia Dose” value is reported as more than 110 nmol/kg.
With “SEQ ID NO: 3 with 2 kD mPEG (PVSEIQLMHNLGRHLASMERVEWLRKLLQDVHNF-NH2; also: 2 kD mPEG, site not given here)”, in data set [1], the “Hypercalcemic Dose/Femoral Neck Strength Dose” value is listed as 8.8, the “Hypercalcemic Dose/Midshaft Strength Dose” value is on record as 8.8, the “Hypercalcemic Dose/Vertebral BMC Dose” value is reported as 8.8 and the “Hypercalcemic Dose/Vertebral BMD Dose” value is reported as more than 0.9. In data set [1], the “Hypercalcemic Dose/Vertebral Strength Dose” value is given as more than 0.9, the “Vertebral BMC Dose” value was 11 nmol/kg, the “Vertebral BMD Dose” value is more than 110 nmol/kg and the “Fem Neck Strength Dose” value is recorded as 11 nmol/kg. Moreover, in data set [1], the “Midshaft Strength Dose” value worked out at 11 nmol/kg, the “Vertebral Strength Dose” value is given as more than 110 nmol/kg and the “Hypercalcemia Dose” value is 97 nmol/kg.
